Test results reported in US20240010673A1 (ARIZONA BOARD OF REGENTS ON BEHALF OF THE UNIVERSITY OF …, published 2024).

Target: the molecule itself
Assay: cell-based or functional assay

B1: P-C24-P (other)
chain: MGSGSGSAPQMLRELQETNAALQDVRELLRQQVKEITFLKNTVMESDASGASYRDPMGAGAGAGPEGAGAGAGPEGAGAGAGPEGAGAGAGPEGAGAGAGPEGAGAGAGPEGAGAGAGPEGAGAGAGPEGAGAGAGPEGAGAGAGPEGARMPTSYRDPMGAGAGAGPEGAGAGAGPEGAGAGAGPEGAGAGAGPEGAGAGAGPEGAGAGAGPEGAGAGAGPEGAGAGAGPEGAGAGAGPEGAGAGAGPEGARMPTSYRDPMGAGAGAGPEGAGAGAGPEGAGAGAGPEGAGAGAGPEGARMPEFAPQMLRELQETNAALQDVRELLRQQVKEITFLKNTVMESDASGKLAAALEHHHHHH
  half-life of P coiled-coil cross-linked hydrogel in bioerosion test at 25 C: ~2.6 h
